Data set [1] deals with T1, Cytohesin-2 Sec7 domain (UniProt Q99418 Q99418:72-201).
T1 sequence: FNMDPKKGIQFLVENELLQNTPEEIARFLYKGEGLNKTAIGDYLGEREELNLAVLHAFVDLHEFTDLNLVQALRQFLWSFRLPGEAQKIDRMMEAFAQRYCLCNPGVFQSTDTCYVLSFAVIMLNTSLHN
The experiment in a line: filter; competition vs 32P-C10.35; IC50 only in figure; 3 mM MgCl2 in PBS, 0.005% Triton X-100, 37 C. The following applies: tags: His (detected with anti-penta-His); expressed in E. coli; label: 5'-32P for radiolabeled tracer; stem with a double bulge. As for the experimental part: (§1) To determine the affinity, ˜10 fmol of radiolabeled aptamer was incubated with protein dilution series for 30 min at 37° C. in 25 μL of buffer containing 1 mg/ml E. coli tRNA (Roche, Mannheim, Germany), 1 μg/ml BSA, 3 mM MgCl₂ in PBS, pH 7.4. For Sec7, 0.005% Triton X-100 was added and for c-Met-Fc, 1 mg/ml of BSA was used instead of 1 μg/ml. The aptamer-protein complexes were captured on a Protran™ nitrocellulose membrane (GE Healthcare) that was pre-incubated in 0.4 M KOH for 10 minutes, followed by washing with ddH₂O and PBS containing 3 mM MgCl₂, pH 7.4. After addition of the aptamer-protein solution, the filter was washed 4 times with PBS containing 3 mM MgCl₂, pH 7.4. Radioactivity was quantified using a Fujifilm Fla-3000 PhosphorImager and AIDA software package. The percentage of bound aptamer was calculated using equation 1:
(§2) Filter retention assays in which the 5′-functionalized aptamer competed with the non-functionalized aptamer for binding to Sec-7 were performed as described above to test the influence of the 5′-functionalization on aptamer binding.

In data set [2] the target is T1, Cytohesin-2 Sec7 domain. The experiment in a line: filter; affinity not altered vs unfunctionalized C10.35; high UV cross-linking; also cross-links in H460 lysate (p104). The following applies: tags: His (detected with anti-penta-His); expressed in E. coli; label: biotin; stem with a double bulge. As for the experimental part: as §1, §2
The target in data set [3] is T1, Cytohesin-2 Sec7 domain. Briefly: 365 nm photo-crosslinking, Western blot; marginal at highest concentration only; no band in H460 lysate (p104). The settings on record: tags: His (detected with anti-penta-His); expressed in E. coli; label: biotin. The protocol:
Incubation of the target protein Sec7 with the 5′-functionalized aptamer C10.35 was performed by mixing 250 nM of the aptamer with different protein concentrations at 37° C. for 30 min as described in Examples 2 and 4. Crosslinking also was performed on ice by illuminating at 365 nm for 10 minutes.
Further, the amount of cross-linking of the 5′-functionalized aptamer C 10.35 to Sec-7 was investigated after incubating […] 167 nm, 56 nm and 19 nM Sec-7 with 250 nM of the 5′-functionalized aptamers C10.35 and C10.35 C15T, followed by UV irradiation at 365 nm using SDS-PAGE, followed by western blotting using neutravidin-dylight™ 800 (Thermo Scientific) to visualize biotinylated proteins. Anti-penta-his (1:2000, Qiagen) was used to visualize the total amount of Sec7 and goat-anti-mouse-IgG-dylight™ 800 (Thermo Scientific) was used as a secondary antibody. The blots were scanned at 800 nm using an Odyssey scanner (Li-cor Biotechnology, Bad Homburg, Germany).

Data set [4] has as its target T2, c-Met ectodomain-Fc fusion (HGFR) (UniProt P08581 P08581:25-932). Briefly: filter; competition vs 32P-trCLN3; PBS pH 7.4, 3 mM MgCl2, tRNA 1 mg/ml, BSA 1 mg/ml, 37 C. The settings on record: tags: human IgG1 Fc fusion; His (detected with anti-penta-His); R&D Systems; chain copies: 2; label: biotin; G4. The protocol:
as §1, with “1: […]” for “1:”

Data set [5] addresses T2, c-Met ectodomain-Fc fusion (HGFR). Briefly: filter; competition vs 32P-trCLN3; PBS pH 7.4, 3 mM MgCl2, tRNA, BSA, 37 C; nanomolar affinity stated. The following applies: tags: human IgG1 Fc fusion; His (detected with anti-penta-His); R&D Systems; chain copies: 2; label: 5'-32P for radiolabeled tracer; G4 (two G-quadruplexes).
Data set [6] has the same target. Briefly: filter; no binding in tested range; in photo-crosslinking 24-fold lower signal than ABAL-trCLN3 at 500 nM c-Met (p87). The following applies: tags: human IgG1 Fc fusion; His (detected with anti-penta-His); R&D Systems; chain copies: 2; label: biotin. As for the experimental part:
as §1, with “1: […]” for “1:”

T2 sequence (P08581 25-932, one chain of several): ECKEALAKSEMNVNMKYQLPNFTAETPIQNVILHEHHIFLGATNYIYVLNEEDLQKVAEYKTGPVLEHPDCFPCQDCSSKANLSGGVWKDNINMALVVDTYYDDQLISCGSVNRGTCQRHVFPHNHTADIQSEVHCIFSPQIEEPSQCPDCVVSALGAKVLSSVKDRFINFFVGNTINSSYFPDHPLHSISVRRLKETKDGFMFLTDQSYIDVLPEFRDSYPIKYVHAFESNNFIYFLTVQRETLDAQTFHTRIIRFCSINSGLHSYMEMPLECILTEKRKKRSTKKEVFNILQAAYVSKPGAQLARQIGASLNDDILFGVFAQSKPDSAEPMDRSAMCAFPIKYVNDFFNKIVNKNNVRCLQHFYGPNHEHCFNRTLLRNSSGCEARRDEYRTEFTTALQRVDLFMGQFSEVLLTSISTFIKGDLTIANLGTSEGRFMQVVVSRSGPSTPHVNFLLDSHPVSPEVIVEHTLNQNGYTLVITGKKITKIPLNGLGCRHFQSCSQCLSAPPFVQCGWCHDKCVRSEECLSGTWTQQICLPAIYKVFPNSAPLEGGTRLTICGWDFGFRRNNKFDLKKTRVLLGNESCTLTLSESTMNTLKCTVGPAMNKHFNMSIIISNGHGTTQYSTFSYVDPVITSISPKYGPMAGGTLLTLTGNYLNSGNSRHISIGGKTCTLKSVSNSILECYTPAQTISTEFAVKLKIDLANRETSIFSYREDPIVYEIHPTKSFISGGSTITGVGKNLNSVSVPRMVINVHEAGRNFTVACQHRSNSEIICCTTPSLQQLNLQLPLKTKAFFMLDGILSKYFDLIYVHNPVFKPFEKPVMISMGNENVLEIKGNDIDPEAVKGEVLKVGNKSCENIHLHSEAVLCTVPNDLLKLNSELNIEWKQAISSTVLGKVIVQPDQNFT

On to ACTCGGGAGGACTGCTTAGGATTGCGAACCCGGGT (ssDNA) [C10.35], for which the binding result in data set [1] was “binds”.

Turning to ACTCGGGAGGACTGCTTAGGATTGCGAACCCGGGT (ssDNA, 5'-hexylamine coupled Sulfo-SBED (phenyl azide, biotin)) [ABAL-C10.35], the binding result in data set [2] is “binds”. For the molecule ACTCGGGAGGACTGTTTAGGATTGCGAACCCGGGT (ssDNA, 5'-hexylamine coupled Sulfo-SBED (phenyl azide, biotin)) [ABAL-C10.35 C15T], in data set [3], the binding signal was 7 fold lower cross-linking than ABAL-C10.35. Take TGGATGGTAGCTCGGTCGGGGTGGGTGGGTTGGCAAGTCT (ssDNA, 5'-hexylamine coupled Sulfo-SBED (phenyl azide, biotin)) [ABAL-trCLN3]: the IC50 in data set [4] came out at 0.05 µM. On to TGGATGGTAGCTCGGTCGGGGTGGGTGGGTTGGCAAGTCT (ssDNA) [trCLN3], for which, in data set [5], the IC50 was found to be 0.076 µM. That is a double-digit nanomolar value. On to TGGATGGTAGCTCGGTCGGGGTGGATGGGTTGGCAAGTCT (ssDNA, 5'-hexylamine coupled Sulfo-SBED (phenyl azide, biotin)) [ABAL-trCLN3 G25A], for which the binding result in data set [6] was “no binding”.

The values above are taken from patent US20170059576, “METHOD OF DETERMINING A PROTEIN IN A SAMPLE” (RHEINISCHE FRIEDRICH-WILHELMS UNIVERSITAT BONN, published 2017).
